Measured values published in patent publication US20070054848A1, “Composition and method for nerve regeneration” (priority 2003, published 2007).

What was measured:
[1] = test system: RhoA complexed with Rho GDI; test: In vitro nucleotide exchange assay; format: biochemical; conditions: high Mg2+ concentrations; 90 nM Dbl
Description: Lipid-modified RhoA was purified from yeast membranes as described (Forget, M. A., Desrosiers, R. R., Gingras, D. & Beliveau, R., Biochem. J. 361, 243-54(2002)). [^3H]GDP- or GDP-RhoA complexed with Rho GDI was obtained by first incubating GDP-RhoA with or without [^3H]GDP, followed by incubation with Rho GDI for 30 min, as described previously (Takahashi, K. et al., J. Biol. Chem. 272, 23371-23375 (1997)). The sample, subjected to gel filtration, was equilibrated with 20 mM Tris-HCl (pH 7.5) containing 5 mM MgCl2, 1 mM dithiothreitol and 0.1% CHAPS. The GDP dissociation and GTP binding assays were carried out by the filter binding method as described previously (Hart, M. J., Eva, A., Evans, T., Aaronson, S. A. & Cerione, R. A., Nature 354, 311-314 (1991)). In the [^3H]GDP dissociation assay, 50 nM of the complex was incubated for 20 min with various concentrations of GST-fused proteins in a reaction mixture (50 μl) containing 30 mM Tris-HCl (pH 7.5), 5 mM or 0.5 μM MgCl2, 1 (for low Mg) or 10 (for high Mg) mM EDTA, 0.1 mM GTP, 1 mM dithiothreitol, 0.12% CHAPS and 0.2 mg/ml bovine serum albumin. In the [^35S] GTPγS binding assay, the complex was incubated as described above except that 1 μM [^35S] GTPγS was used instead of 0.1 mM GTP. At the indicated time, an aliquot of the reaction sample was removed, and passed through nitrocellulose filters (IPVH 000, Millipore). […]

nerve regeneration = test: Similar experiments with modified amino acid agents (Example 2-8)
Description: Similar experiments were carried out using Pep5 in which alanine was added to the C terminus of the sequence (SEQ ID NO: 2), antibodies for the extracellular domain of p75, and p75 in which alanine was replaced with valine at amino acid 423 in positions 273-427 of SEQ ID NO: 4.

B1: p75 ICD: intracellular domain (ICD) of p75, GST-fused (protein)
chain: KRWNSCKQNKQGANSRPVNQTPPPEGEKLHSDSGISVDSQSLHDQQTHTQTASGQALKGDGNLYSSLPLTKREEVEKLLNGDTWRHLAGELGYQPEHIDSFTHEACPVRALLASWGAQDSATLDALLAALRRIQRADIVESLCSESTATSPV
modifications: left off: a dimerising Fc or GST
notes: intracellular domain (ICD) of p75, GST-fused
For B1, the “Dbl stimulated dissociation of GDP from GDP-RhoA complexed with Rho GDI” value [1] was “showed the inhibitory effect to the same extent as p75 HD”.

B2: p75 in which alanine was replaced with valine at amino acid 423: p75 with alanine replaced with valine at amino acid 423 in positions 273-427 of SEQ ID NO: 4 (protein, listed as Homo sapiens)
chain: KRWNSCKQNKQGANSRPVNQTPPPEGEKLHSDSGISVDSQSLHDQQPHTQTASGQALKGDGGLYSSLPPAKREEVEKLLNGSAGDTWRHLAGELGYQPEHIDSFTHEACPVRALLASWATQDSATLDALLAALRRIQRADLVESLCSESTVTSPV
For B2, the nerve regeneration (nerve regeneration) was “nerve regeneration was similarly observed”.
